In publication PMC2650403:

Assays:
[1] = target: Werner syndrome protein (WRN), recombinant His6-tagged, wild type (human) (UniProt Q14191)
[2] = target: WRN-E84A, full-length WRN with the N-terminal exonuclease inactivating mutation E84 to alanine (human) (UniProt Q14191)

radiometric DNA helicase assay, percent unwinding of a telomeric-repeat substrate lacking the 3′-ss tail by WRN (3 nM) with RPA 6 to 24 nM [1] [%] | radiometric DNA helicase assay, increase in unwound product of a 30-nt gap telomeric substrate pre-bound with POT1v1 (6 to 48 nM), WRN-E84A 6 nM; value at the 1:8 ratio of WRN-E84A to POT1v1 [2] [%] | Molecule
22 | – | Recombinant human replication protein A (RPA) (complex)
– | 10 | Protector of telomeres 1, variant 1 (POT1v1) (natural protein) MSLVPATNYIYTPLNQLKGGTIVNVYGVVKFFKPPYLSKGTDYCSVVTIVDQTNVKLTCLLFSGNYEALPIIYKNGDIVRFHRLKIQVYKKETQGITSSGFASLTFEGTLGAPIIPRTSSKYFNFTTEDHKMVEALRVWASTHMSPSWTLLKLCDVQPMQYFDLTCQLLGKAEVDGASFLLKVWDGTRTPFPSWRVLIQDLVLEGDLSHIHRLQNLTIDILVYDNHVHVARSLKVGSFLRIYSLHTKLQSMNSENQTMLSLEFHLHGGTSYGRGIRVLPESNSDVDQLKKDLESANLTANQHSDVICQSEPDDSFPSSGSVSLYEVERCQQLSATILTDHQYLERTPLCAILKQKAPQQYRIRAKLRSYKPRRLFQSVKLHCPKCHLLQEVPHEGDLDIIFQDGATKTPDVKLQNTSLYDSKIWTTKNQKGRKVAVHFVKNNGILPLSNECLLLIEGGTLSEICKLSNKFNSVIPVRSGHEDLELLDLSAPFLIQGTIHHYGCKQCSSLRSIQNLNSLVDKTSWIPSSVAEALGIVPLQYVFVMTFTLDDGTGVLEAYLMDSDKFFQIPASEVLMDDDLQKSVDMIMDMFCPPGIKIDAYPWLECFIKSYNVTNGTDNQICYQIFDTTVAEDVI
